Measurements taken from US20210363257A1 (Pieris, published 2021).

Assays:
[1] = target: T1, huCD137-His (human CD137 with a C-terminal polyhistidine tag) (human, UniProt Q07011 24-186); assay: dual-binding ELISA, huCD137-His coated, binder titrated, detection with biotinylated huPD-L1-His
T1 construct: Bought; also called huCD137-His-Bio

[2] = target: T2, huPD-L1-His (human PD-L1 with a C-terminal polyhistidine tag) (human, UniProt Q9NZQ7 19-239); assay: SPR (Biacore), binder captured by anti-human IgG Fc, huPD-L1-His in solution, 25 C, 1:1 model
T2 construct: Bought; also called biotinylated huPD-L1-His
T2 sequence (Q9NZQ7 19-239 limits assumed): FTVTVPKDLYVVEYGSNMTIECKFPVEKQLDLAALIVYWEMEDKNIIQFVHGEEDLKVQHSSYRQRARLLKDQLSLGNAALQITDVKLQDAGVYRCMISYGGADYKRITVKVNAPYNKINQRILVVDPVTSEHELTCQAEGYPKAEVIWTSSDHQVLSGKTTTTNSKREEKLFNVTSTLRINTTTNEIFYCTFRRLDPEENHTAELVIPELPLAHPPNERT
Experimental: The binding kinetics and affinity of exemplary fusion proteins to huPD-L1-His or huCD137-His (human PD-L1 or human CD137 with a C-terminal polyhistidine tag, R&D Systems) were determined by surface plasmon resonance (SPR) using a Biacore 8K or a Biacore T200 (GE Healthcare).
The anti-human IgG Fc antibody (GE Healthcare) was immobilized on a CM5 sensor chip using standard amine chemistry: the carboxyl groups on the chip were activated using 1-ethyl-3-(3-dimethylaminopropyl)-carbodiimide (EDC) and N-hydroxysuccinimide (NHS). Subsequently, anti-human IgG Fc antibody solution (GE Healthcare) at a concentration of 25 μg/mL in 10 mM sodium acetate (pH 5.0) was applied at a flow rate of 5 μL/min until an immobilization level of 6000-10000 resonance units (RU) was achieved. Residual non-reacted NHS-esters were blocked by passing a solution of 1M ethanolamine across the surface. The reference channel was treated in an analogous manner. […] After each capture step, the needle was washed.
Double referencing was used and the 1:1 binding model was used to fit the raw data.

[3] = target: T3, human PD-L1 expressed on cells (human, UniProt Q9NZQ7 19-290); assay: flow cytometry, RKO tumor cells (PD-L1-positive)
T3 construct: whole, on cells; also called Flp-In-CHO::huPDL-1; RKO cells
T3 sequence (Q9NZQ7 19-290): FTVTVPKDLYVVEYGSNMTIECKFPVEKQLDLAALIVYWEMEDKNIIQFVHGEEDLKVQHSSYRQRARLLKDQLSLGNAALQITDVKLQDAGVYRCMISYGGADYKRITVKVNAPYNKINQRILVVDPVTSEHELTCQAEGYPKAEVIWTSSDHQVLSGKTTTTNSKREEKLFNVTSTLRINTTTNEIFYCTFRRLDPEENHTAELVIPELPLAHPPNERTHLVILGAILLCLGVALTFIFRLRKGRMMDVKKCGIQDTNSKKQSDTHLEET
Experimental: (§1) 5×10⁴ cells per well were incubated for 1 h in ice-cold PBS containing 5% fetal calf serum (PBS-FCS). A dilution series of the fusion proteins and control antibodies were added to the cells and incubated for 1 h on ice. Cells were washed twice with PBS and then incubated with a goat anti-hIgG Alexa647-labeled antibody for 30 min on ice. Cells were subsequently washed and analyzed using iQue Flow cytometer (Intellicyte Screener). Mean geometric fluorescent signals were plotted and fitted with Graphpad software using nonlinear regression (shared bottom, SLOPE=1).
For flow cytometric analysis, RKO cells were incubated with fusion proteins and detected using a fluorescently labeled anti-human IgG antibody as described in Example 6.

[4] = target: T4, cynomolgus CD137 expressed on cells (cynomolgus, UniProt A9YYE7 24-254); assay: flow cytometry, Flp-In-CHO::cynoCD137 cells
T4 construct: also called Flp-In-CHO::cynoCD137
T4 sequence (A9YYE7 entry or part of it limits assumed): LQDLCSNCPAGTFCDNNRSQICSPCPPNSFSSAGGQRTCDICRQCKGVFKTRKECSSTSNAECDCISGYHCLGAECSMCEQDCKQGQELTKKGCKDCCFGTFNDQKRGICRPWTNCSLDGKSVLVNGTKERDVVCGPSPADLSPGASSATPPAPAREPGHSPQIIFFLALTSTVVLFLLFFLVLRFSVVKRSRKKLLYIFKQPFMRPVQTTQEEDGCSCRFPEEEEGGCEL
Experimental: The geometric means of the fluorescence intensity were used to calculate EC₅₀ values using nonlinear regression (shared bottom, SLOPE=1).
as §1

[5] = target: T5, huPD-L1-Fc (recombinant human PD-L1 Fc fusion) (human, UniProt Q9NZQ7 19-239); assay: competitive ELISA, huPD-1-His coated, 15 nM huPD-L1-Fc tracer, binder titrated
T5 construct: Bought; also called tracer huPD-L1-Fc
T5 sequence (Q9NZQ7 19-239 limits assumed): as the sequence (Q9NZQ7 19-239 limits assumed) above
Experimental: Recombinant huPD-1-His (Acrobiosystems) in PBS (1 μg/mL) was coated overnight on microtiter plates at 4° C. The plates were washed five times after each incubation step with 100 μL PBS-0.05% T (PBS supplemented with 0.05% (v/v) Tween 20). The plates were blocked with 2% BSA (w/v) in PBS-0.1% T (PBS supplemented with 0.1% (v/v) Tween 20) for 1 h at room temperature and subsequently washed again. […] The mixtures of fusion proteins and the tracer were added to the plates and incubated for 20 min at room temperature following by five washing steps with 100 μL PBS-0.05% T. Subsequently, a 1:5000 dilution of goat-anti human IgG-Fc HRP (Jackson) was added to the wells and incubated for 1 h. After an additional wash step, fluorogenic HRP substrate (QuantaBlu, Thermo) was added to each well, and the fluorescence intensity was detected using a fluorescence microplate reader.

[6] = target: cyCD137-Fc (cynomolgus CD137 C-terminally fused to Fc) (cynomolgus); assay: ELISA, cyCD137-Fc coated, detection anti-NGAL-HRP
Experimental: Recombinant huPD-L1-His or cyPD-L1-His (human or cynomolgus PD-L1 with a C-terminal polyhistidine tag, R&D Systems or Sino Biologics) at the concentration of 1 μg/mL in PBS was coated overnight on microtiter plates at 4° C. After washing with PBS-0.05% T (PBS supplemented with 0.05% (v/v) Tween 20), the plates were blocked with 2% BSA (w/v) in PBS-0.1% T (PBS supplemented with 0.1% (v/v) Tween 20) for 1 h at room temperature. […] Bound molecules under study were detected by incubation with 1:5000 diluted anti-human IgG Fc-HRP (Jackson Laboratory) in PBS-0.1% T-2% BSA. After an additional wash step, fluorogenic HRP substrate (QuantaBlu, Thermo) was added to each well and the fluorescence intensity was detected using a fluorescence microplate reader.
The same ELISA setup was also employed to determine the binding potency of fusion proteins to CD137, where huCD137-His (human CD137 with C-terminal polyhistidine tag, R&D Systems) or cyCD137-Fc (cynomolgus CD137 C-terminally fused to Fc) was instead coated on a microtiter plate. The testing agents were similarly titrated and bound agents were detected via anti-NGAL-HRP.

[7] = target: human CD137 expressed on cells (human, UniProt Q07011 24-255); assay: cell-based or functional assay
Sequence of human CD137 expressed on cells (Q07011 24-255): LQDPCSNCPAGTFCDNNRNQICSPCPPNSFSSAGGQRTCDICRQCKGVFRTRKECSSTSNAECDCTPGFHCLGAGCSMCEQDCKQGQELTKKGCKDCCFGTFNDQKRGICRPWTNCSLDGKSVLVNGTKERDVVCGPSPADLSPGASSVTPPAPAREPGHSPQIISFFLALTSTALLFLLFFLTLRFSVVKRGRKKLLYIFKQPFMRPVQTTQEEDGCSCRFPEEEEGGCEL

T1 sequence (Q07011 24-186 limits assumed): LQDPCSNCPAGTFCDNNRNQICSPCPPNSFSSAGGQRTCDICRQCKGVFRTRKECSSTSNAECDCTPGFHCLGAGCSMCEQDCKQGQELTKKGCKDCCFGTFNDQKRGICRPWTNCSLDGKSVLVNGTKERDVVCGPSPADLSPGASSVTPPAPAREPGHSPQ

EC50 [1] | Kd [2] | koff [2] | kon [2] | EC50 [3] | EC50 [4] | IC50 [5] | EC50 [6] | EC50 [nM] With RKO cells (CD137 Bioassay, NFκB-luc2/CD137 Jurkat luminescence) [7] | Binder
3.3 nM | 0.568 nM | 0.000748 s⁻¹ | 1.32e+06 M⁻¹ s⁻¹ | 0.45 nM | 39.1 nM | 3 nM | 13 nM | 0.0889 nM | fusion protein SEQ ID NOs: 86 and 91 (bispecific antibody, human IgG4 S228P, kappa, F234A L235A, Antibody-lipocalin mutein fusion, IgG4 S228P backbone; Bivalent to CD137) heavy: not shown light: EIVLTQSPDTLSVTPKEKVTLTCRASQSIGTNIHWFQQKPGQSPKLLIKYASESISGVPSRFSGSGSGTDFTLTINSVEAEDAATYYCQQSNSWPYTFGQGTKLEIKRTVAAPSVFIFPPSDEQLKSGTASVVCLLNNFYPREAKVQWKVDNALQSGNSQESVTEQDSKDSTYSLSSTLTLSKADYEKHKVYACEVTHQGLSSPVTKSFNRGECGGGGSGGGGSGGGGSQDSTSDLIPAPPLSKVPLQQNFQDNQFHGKWYVVGQAGNIRLREDKDPIKMMATIYELKEDKSYDVTMVKFDDKKCMYDIWTFVPGSQPGEFTLGKIKSFPGHTSSLVRVVSTNYNQHAMVFFKFVFQNREEFYITLYGRTKELTSELKENFIRFSKSLGLPENHIVFPVPIDQCIDG
2.9 nM | 0.592 nM | 0.000769 s⁻¹ | 1.3e+06 M⁻¹ s⁻¹ | 0.51 nM | 51.4 nM | 2.3 nM | 5.9 nM | 0.0809 nM | fusion protein SEQ ID NOs: 90 and 87 (bispecific antibody, human IgG4 S228P, kappa, F234A L235A, Bivalent to CD137) heavy: not shown light: EIVLTQSPDTLSVTPKEKVTLTCRASQSIGTNIHWFQQKPGQSPKLLIKYASESISGVPSRFSGSGSGTDFTLTINSVEAEDAATYYCQQSNSWPYTFGQGTKLEIKRTVAAPSVFIFPPSDEQLKSGTASVVCLLNNFYPREAKVQWKVDNALQSGNSQESVTEQDSKDSTYSLSSTLTLSKADYEKHKVYACEVTHQGLSSPVTKSFNRGEC
